This is an account of results in US20200317776A1 (published 2020).

To fix the notation:
T1: human TREM2 Fc fusion (entire TREM2 ECD; only one Fc arm fused to TREM2) (human, UniProt Q9NZC2 19-174)
T1 construct: also called huTREM2-Fc; recombinant hTREM2
T1 sequence: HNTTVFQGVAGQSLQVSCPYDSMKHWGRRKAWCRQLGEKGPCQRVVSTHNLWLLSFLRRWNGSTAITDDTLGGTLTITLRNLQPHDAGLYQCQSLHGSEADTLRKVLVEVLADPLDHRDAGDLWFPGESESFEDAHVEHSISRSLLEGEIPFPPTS

T2: human TREM2 expressed on cells (human, UniProt Q9NZC2 19-230)
T2 construct: BW5147.G.1.4 cells stably expressing human TREM2 together with Dap12, or endogenous TREM2 of primary human myeloid cells; also called huT2 BW; hTREM2 expressing cell line
T2 sequence: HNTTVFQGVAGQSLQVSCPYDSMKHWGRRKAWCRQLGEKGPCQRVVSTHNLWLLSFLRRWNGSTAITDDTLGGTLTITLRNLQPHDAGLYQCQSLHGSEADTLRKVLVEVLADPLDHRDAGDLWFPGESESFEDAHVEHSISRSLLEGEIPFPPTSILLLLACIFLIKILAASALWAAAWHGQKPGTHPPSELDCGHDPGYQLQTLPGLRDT

T3: cynomolgus monkey TREM2 Fc fusion (entire TREM2 ECD; only one Fc arm fused to TREM2) (cynomolgus monkey, UniProt Q9NZC2 19-174 (human entry))
T3 construct: also called cyno TREM2-Fc
T3 chain: T1 sequence with A10E, W60R, L89F, F125V

B1: AL2p-8 (antibody, V domains shown)
VH: QVQLVQSGAEVKKPGSSVKVSCKASGYAFSLSWMNWVRQAPGQGLEWMGRIYPGDGDTNYARKFQGRVTITADESTSTAYMELSSLRSEDTAVYYCARLLRNQPGSSYAMDYWGQGTLVTVSS
VL: GVVMTQTPLSLSVTPGQPASISCRSSQSLIHSNGYTYLHWYLQKPGQSPQLLIYKVSNRRSGVPDRFSGSGSGTDFTLKISRVEAEDVGVYYCSQSTRVPYTFGQGTKLEIK
notes: Fab and IgG formats under one id
B2: AL2p-26 (antibody, V domains shown)
VH: B1 VH with L31S, S32H, D55G, R62Q, F64R, S106E
VL: B1 VL
notes: as for B1
B3: AL2p-35 (antibody, V domains shown)
VH: B1 VH with S16A, S30W, L31S, G44R, M48I, R62Q, E74T, T76A, S106E, M110H
VL: DVVMTQSPDSLAVSLGERATINCRSSQSLVHSNGYTYLHWYQQKPGQSPKLLIYKVSNRFSGVPDRFSGSGSGTDFTLTISSLQAEDVAVYYCSQSTRVPYTFGGGTKVEIK
notes: as for B1
B4: AL2p-9 (antibody, V domains shown)
VH: B1 VH with L31R, R62Q, S106A
VL: B1 VL with S25T, I30V, R60V
notes: as for B1
B5: AL2p-36 (antibody, V domains shown)
VH: B1 VH with S16A, L31S, G44R, M48I, E74T, T76A, S106A
VL: B3 VL
notes: as for B1
B6: AL2p-15 (antibody, V domains shown)
VH: B1 VH with L31S, S32H, R62Q, S106E
VL: B1 VL with Q27S, I30V, R60K
notes: as for B1
B7: AL2p-29 (antibody, V domains shown)
VH: B1 VH with L31S, S32Q, R62Q, S106E
VL: B1 VL with Q27R, I30V, R60F
notes: as for B1
B8: AL2p-16 (antibody, V domains shown)
VH: B1 VH with L31S, S32H, R62Q, Q65R, S106A
VL: B1 VL with S25T, I30V, R60V
notes: as for B1
B9: AL2p-23 (antibody, V domains shown)
VH: B1 VH with L31S, S32H, D57Q, R62Q, F64R, S106E
VL: B1 VL with S25T, I30V, R60V
notes: as for B1
B10: AL2p-47 huIgG1 (antibody, V domains shown)
VH: B1 VH with L31S, S32D, D55E, Q65H, Q103K, S106E
VL: DVVMTQTPLSLSVTPGQPASISCRTSQSLVHSNAYTYLHWYLQKPGQSPQLLIYKVSNRVSGVPDRFSGSGSGTDFTLKISRVEAEDVGVYYCSQSTRVPYTFGQGTKLEIKR
B11: AL2p-61 huIgG1 (antibody, V domains shown)
VH: B1 VH with L31S, S32Q, D55E, S106E
VL: B10 VL with D1G, T25S, A34Q, V60R

Numbering of substitutions follows the chain as printed.

T4 sequence (O43914 other isoform, or with tags, fused parts or gaps limits assumed): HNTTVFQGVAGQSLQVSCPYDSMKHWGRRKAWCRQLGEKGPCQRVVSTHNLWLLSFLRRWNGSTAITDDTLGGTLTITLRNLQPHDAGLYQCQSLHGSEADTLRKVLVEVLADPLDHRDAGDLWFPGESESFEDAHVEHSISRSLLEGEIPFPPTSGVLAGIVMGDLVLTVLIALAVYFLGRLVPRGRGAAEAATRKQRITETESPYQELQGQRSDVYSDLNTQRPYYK

The first test has as its target T1, human TREM2 Fc fusion (entire TREM2 …). Nature of the test: BLI, IgG, avid. The method, then: Briefly, IgGs were loaded on-line onto AHQ sensors, Sensors were equilibrated off-line in assay buffer for 30 minutes and then monitored on-line for 60 seconds for baseline establishment. For avid binding measurement, sensors with loaded IgGs were exposed to 100 nM antigen (human or cynomolgus monkey TREM2 Fe fusion using the entire TREM2 ECD; only one Fc arm was fused to TREM2) for 3 minutes, afterwards they were transferred to assay buffer for 3 minutes for off-rate measurement. Monovalent binding measurements were obtained by loading human TREM2 Fc fusion antigens to AHQ sensor and followed by exposure to 100 nM TREM2 antibody Fab. Kinetics data were fit using a 1:1 binding model in the data analysis software provided by ForteBio. Assay was run at room temperature (25° C.).
A general note: BLI is a label-free optical method that tracks binding on a fibre tip over time.
By Kd is commonly meant a measure of binding affinity in units of concentration. B1: the dissociation constant Kd came to 0.3 nM.
B2 yielded a Kd of 0.201 nM.
On to B3, for which the dissociation constant Kd stood at 1.85 nM.
Molecule B4 registered an equilibrium dissociation constant (Kd) of 0.349 nM.
Same read-out and setting: the result for B5 reads 0.495 nM; that for B6, 0.538 nM.
Still for that read-out and setting: the result for B7 reads 0.403 nM.
Still for that read-out and setting: the result for B8 reads 0.222 nM; that for B9, 0.334 nM.

The target of another test is T2, human TREM2 expressed on cells. Description: FACS, hTREM2 BW cells. In a few lines: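 Cells were BW5147.G.1.4 stably expressing human TREM2 with Dap12, or human monocyte-derived dendritic cells differentiated 6 days with GM-CSF and IL-4. Antibodies bound 1 h on ice in PBS+2% FBS, then PE anti-human secondary 30 min on ice; flow cytometry read-out as mean fluorescence intensity.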
In general terms: In flow cytometry, cells or beads pass a laser one at a time.
In turn, B1 gave a Kd of 1.2 nM.
As for B2, the Kd amounted to 1.1 nM.
Regarding B3, the affinity, expressed as Kd, was 3.6 nM.
In the case of B4, binding was characterised by a dissociation constant (Kd) of 1.1 nM.
As to B5, the dissociation constant Kd was 1.7 nM.
The same measure, in the same setting: the result for B6 reads 2.2 nM; that for B7, 1.3 nM.
The same measure, in the same setting: the result for B8 reads 1.2 nM.
Still for that read-out and setting: under B9 stands 1.2 nM.

The target is the same in another test. Description: cell-based or functional assay.
With B1, the “Survival huDCs plate bound IgG, AUC” value was 1.09e+06 AUC.
Still for that read-out and setting: the result for B2 reads 1.11e+06 AUC; that for B3, 453000 AUC; that for B4, 976000 AUC.
On to B5, for which the “Survival huDCs plate bound IgG, AUC” value amounted to 1.14e+06 AUC.
Consider B6, for which the “Survival huDCs plate bound IgG, AUC” value is 488000 AUC.
The same measure, in the same setting: the result for B7 reads 1.11e+06 AUC; that for B8, 880000 AUC; that for B9, 1.11e+06 AUC.

The next test addresses T4, human TREM2/DAP12 fusion protein (human, UniProt O43914 41-113, limits assumed). Description: cell-based or functional assay.
Consider B1, for which the “Luciferase activation soluble 10 nM IgG, FOC” value was found to be 2.78 FOC.
For the molecule B2, the “Luciferase activation plate bound 33 nM IgG, FOC” value was 25.9 FOC and the “Luciferase activation soluble 10 nM IgG, FOC” value was 2.59 FOC.
The like results for B3 were, in that order, 5.15 FOC and 2.05 FOC.
For B4 the same measures were 15.2 FOC and 2.62 FOC.
For the molecule B5, the “Luciferase activation plate bound 33 nM IgG, FOC” value is 22.7 FOC and the “Luciferase activation soluble 10 nM IgG, FOC” value is 2.64 FOC.
Consider B6, for which the “Luciferase activation plate bound 33 nM IgG, FOC” value amounted to 7.54 FOC and the “Luciferase activation soluble 10 nM IgG, FOC” value was 1.8 FOC.
Take B7: the “Luciferase activation plate bound 33 nM IgG, FOC” value stood at 26.6 FOC and the “Luciferase activation soluble 10 nM IgG, FOC” value was found to be 2.17 FOC.
B8: the “Luciferase activation plate bound 33 nM IgG, FOC” value amounted to 16.9 FOC and the “Luciferase activation soluble 10 nM IgG, FOC” value is 2.6 FOC.
The like results for B9 were, in that order, 29.8 FOC and 2.53 FOC.

The next test deals with T4, human TREM2/DAP12 fusion protein. Description: cell-based or functional assay. This is another data set of the same source.
Consider B10, for which the “Plate bound IgG, fold over unstimulated control (25 nM IgG)” value was determined as 3.94 fold; the “Soluble IgG, EC50” value was 6.5 nM; the “Soluble IgG, fold over control IgG (17 nM IgG)” value worked out at 8.77 fold.
For B11 the same measures were 8.97 fold, 5.24 nM and 10.8 fold.

The target of a further test is T2, human TREM2 expressed on cells. Nature of the test: FACS, hTREM2 BW cells. The source holds these as a separate data set.
With B10, the “Bmax (MFI)” value is 226000 MFI and binding was characterised by a dissociation constant (Kd) of 1.2 nM.
In the case of B11, the “Bmax (MFI)” value came to 211000 MFI and the equilibrium dissociation constant (Kd) was 0.42 nM.

Another test shares this target. Nature of the test: cell-based or functional assay. The source holds these as a separate data set.
Take B10: the “EC50 viability, dendritic cells D558” value was 1.02 nM; the “EC50 viability, dendritic cells D559” value worked out at 1.13 nM; the “EC50 viability, dendritic cells D560” value was determined as 0.672 nM; the “EC50 viability, macrophages D558” value came to 0.013 nM. Also, the “EC50 viability, macrophages D559” value was found to be 1.56 nM and the “EC50 viability, macrophages D560” value came to 1.25 nM.

For a further test the target is unchanged. Description: FACS, human DCs. From the text: To examine cell binding of affinity matured anti-TREM2 antibodies, both primary human monocyte derived dendritic cells and recombinant, human TREM2 expressing cells were utilized. For the latter, BW5147.G.1.4 (ATCC® TIB48™) and HEK293T cells stably expressing human TREM2 together with Dap12 using viral infection were established. For primary human monocyte derived dendritic cells, human monocytes were isolated from whole blood using RosetteSep Human monocyte enrichment cocktail (Stemcell technologies) and Ficoll centrifugation per manufacturer protocols. After lysing red blood cells with ACK lysing buffer, monocytes were resuspended in complete media (RPMI, 10% FBS, Pen/Strep, L-glutamine, HEPES, non-essential amino acid, Sodium pyruvate) with 100 ng/ml human GM-CSF (hu-GMCSF) and, human IL-4 (hu-IL-4) to differentiate dendritic cells for 6 days.
Cells were harvested by trypsinization (Hek293T) or scraping (BW and dendritic cells), washed in PBS, counted and plated on 96-well U bottom plates at […] cells/well. The plates were spun at 1,400 rpm for 3 minutes and primary TREM2 or control antibodies were added in FACS buffer (PBS+2% FBS) and incubated on ice for one hour. Cells were subsequently centrifuged as before and washed thrice with FACS buffer. Cells were then incubated with anti-human PE conjugated secondary antibody (BD Biosciences) in FACS buffer for 30 minutes on ice. Cells were again washed thrice with FACS buffer and analyzed on a BD FACS Canto or an Intellicyt Flow Cytometer. Binding was measured as mean fluorescence intensity in the APC channel.
Consider B1, for which the MFI turned out to be 310 MFI.
On the same count and under the same terms, under B2 stands 296 MFI; under B3, 130 MFI; under B4, 322 MFI.
Regarding B5, the MFI turned out to be 240 MFI.
Same read-out and setting: under B6 stands 262 MFI; under B8, 327 MFI.

The target of a further test is T1, human TREM2 Fc fusion (entire TREM2 …). Description: BLI, Fab, monovalent.
In turn, B1 registered a dissociation constant (Kd) of 4.01 nM.
In turn, B2 registered a dissociation constant Kd of 3.15 nM.
The same measure, in the same setting: under B3 stands 28.4 nM.
The same measure, in the same setting: the result for B4 reads 6.44 nM; that for B5, 12.1 nM; that for B6, 8.85 nM.
Still for that read-out and setting: under B7 stands 6.38 nM.
Molecule B8 showed an equilibrium dissociation constant (Kd) of 1.83 nM.
Same read-out and setting: the result for B9 reads 4.35 nM.

The target of another test is T3, cynomolgus monkey TREM2 Fc fusion …. Nature of the test: BLI, Fab, monovalent.
B1 gave a Kd of 3.1 nM.
Same read-out and setting: under B2 stands 2.69 nM.
Still for that read-out and setting: the result for B3 reads 24.6 nM; that for B4, 5.63 nM.
Regarding B5, the dissociation constant Kd was determined as 7.38 nM.
Same read-out and setting: the result for B6 reads 8.76 nM; that for B7, 6.47 nM; that for B8, 1.36 nM.
For B9, the Kd amounted to 4.16 nM.
